Source: US20250186491A1, “COMPOSITIONS AND METHODS FOR TREATING CANCER WITH CHIMERIC TIM RECEPTORS IN COMBINATION WITH INHIBITORS OF POLY (ADP-RIBOSE) POLYMERASE” (CERO THERAPEUTICS HOLDINGS, INC., priority 2020, published 2025)
“Also recorded” adds a separate entry of the source. Like-named read-outs stand apart in the source and are kept apart here.

What was measured:
Kuramochi-mCh-NLS cells = assay: Co-culture of chimeric Tim receptor T cells with Niraparib-treated Kuramochi cells (IncuCyte); type: cell-based, human
Protocol: Kuramochi cells expressing a mCherry-NLS plasmid were incubated for 20 hours with 25, 12.5, or 6.25 μM Niraparib. The next day the Niraparib concentration was reduced to 0.52 μM and co-cultures of primary human CD4+ and CD8+ T cells expressing chimeric Tim receptor construct 13A (TIM4 binding domain-CD28 transmembrane domain—CD28 costimulatory domain-CD3ζ signaling domain) (SEQ ID NO 162) were added to the Kuramochi culture. […] The number of Kuramochi cells expressing mCherry-NLS was monitored via IncuCyte.
Kuramochi cells expressing a mCherry-NLS plasmid were incubated for ˜20 hours with 1.56 μM Niraparib. The next day, media were removed from cells and replaced with fresh media with 0 μM Niraparib, and primary human CD4+ and CD8+ T cells expressing chimeric Tim receptor CTX140 (Tim4 binding domain-CD28 hinge-CD28 transmembrane-CD28 costimulatory domain-DAP12)(SEQ ID NO: 195) or CTX156 (tEGFR control) were added to the Kuramochi culture. The number of Kuramochi cells expressing mCherry-NLS was monitored via IncuCyte.
21500 Kuramochi ovarian cancer cells expressing an mCherry-NLS plasmid were plated on day 0.25, 12.5, or 6.25 μM Niraparib were added to cell culture ˜4 hours later. ˜20 hours after initial Niraparib dose, primary human CD4+ and CD8+ T cells expressing chimeric Tim receptor CTX137 (Tim4 binding domain-CD28 transmembrane-CD28 costimulatory domain-DAP12) (SEQ ID NO: 197) or CTX156 (tEGFR control) and maintenance dose of 0.52 μM Niraparib were added.
T cell transduction and culturing: CD4 and CD8 T cells were isolated from frozen healthy donor PBMCs using Miltenyi CD4+ and CD8+ isolation kits. CD4 and CD8 T cells were then mixed in a 1:1 ratio and incubated overnight in a flat bottom 24 well plate in OpTmizer medium supplemented with cell serum replacement, IL-Glutamine, GlutaMAX, and IL-2, IL-7, and IL-15 cytokines, and TransAct diluted 1:50. […] T cells were counted and supplemented with fresh medium approximately every two days thereafter. […]

[1] = low phosphatidylserine density, cited from earlier work

B1: CTX137: Tim4 binding domain-CD28 transmembrane-CD28 costimulatory domain-DAP12, SEQ ID NO: 197 (protein)
chain: MSKEPLILWLMIEFWWLYLTPVTSETVVTEVLGHRVTLPCLYSSWSHNSNSMCWGKDQCPYSGCKEALIRTDGMRVTSRKSAKYRLQGTIPRGDVSLTILNPSESDSGVYCCRIEVPGWFNDVKINVRLNLQRASTTTHRTATTTTRRTTTTSPTTTRQMTTTPAALPTTVVTTPDLTTGTPLQMTTIAVFTTANTCLSLTPSTLPEEATGLLTPEPSKEGPILTAESETVLPSDSWSSVESTSADTVLLTSKESKVWDLPSTSHVSMWKTSDSVSSPQPGASDTAVPEQNKTTKTGQMDGIPMSMKNEMPISQFWVLVVVGGVLACYSLLVTVAFIIFWVRSKRSRLLHSDYMNMTPRRPGPTRKHYQPYAPPRDFAAYRSYFLGRLVPRGRGAAEAATRKQRITETESPYQELQGQRSDVYSDLNTQRPYYK
modifications: Tim4 binding domain-CD28 transmembrane-CD28 costimulatory signaling domain-DAP12 signaling domain, amino acids 1-24 are signal peptide (CTX137)
For B1, the Kuramochi cell numbers (Kuramochi-mCh-NLS cells; Niraparib 25 μM pre-incubation + 0.52 μM maintenance, control CTX156, FIG. 6) was “reduces Kuramochi cell numbers” and the “number of Kuramochi cells in culture vs mock transduction control” value (Kuramochi-mCh-NLS cells; Niraparib 25, 12.5 or 6.25 μM pre-treatment ~20 h, then 0.52 μM, CD4+/CD8+ T cells, FIG. 4, FIG. 7) was “reduces Kuramochi cell numbers; also recorded: significantly reduce the number of Kuramochi cells”.

B2: CTX140: Tim4 binding domain-CD28 hinge-CD28 transmembrane-CD28 costimulatory domain-DAP12, SEQ ID NO: 195 (protein)
chain: MSKEPLILWLMIEFWWLYLTPVTSETVVTEVLGHRVTLPCLYSSWSHNSNSMCWGKDQCPYSGCKEALIRTDGMRVTSRKSAKYRLQGTIPRGDVSLTILNPSESDSGVYCCRIEVPGWFNDVKINVRLNLQRASTTTHRTATTTTRRTTTTSPTTTRQMTTTPAALPTTVVTTPDLTTGTPLQMTTIAVFTTANTCLSLTPSTLPEEATGLLTPEPSKEGPILTAESETVLPSDSWSSVESTSADTVLLTSKESKVWDLPSTSHVSMWKTSDSVSSPQPGASDTAVPEQNKTTKTGQMDGIPMSMKNEMPISQIEVMYPPPYLDNEKSNGTIIHVKGKHLCPSPLFPGPSKPFWVLVVVGGVLACYSLLVTVAFIIFWVRSKRSRLLHSDYMNMTPRRPGPTRKHYQPYAPPRDFAAYRSYFLGRLVPRGRGAAEAATRKQRITETESPYQELQGQRSDVYSDLNTQRPYYK
modifications: Tim4 binding domain-CD28 hinge-CD28 transmembrane-CD28 costimulatory signaling domain-DAP12 signaling domain, amino acids 1-24 are signal peptide(CTX140)
With B2 the “number of Kuramochi cells in culture vs mock transduction control” value (Kuramochi-mCh-NLS cells; Niraparib 1.56 μM pre-incubation ~20 h, then 0 μM, control CTX156, FIG. 5) was “reduces Kuramochi cell numbers; also recorded: significantly reduce the number of Kuramochi cells”.

B3: Tim-4: phosphatidylserine receptor typically expressed on antigen presenting cells (protein, UniProt Q96H15 25-378, looked up)
T-cell immunoglobulin and …: ETVVTEVLGHRVTLPCLYSSWSHNSNSMCWGKDQCPYSGCKEALIRTDGMRVTSRKSAKYRLQGTIPRGDVSLTILNPSESDSGVYCCRIEVPGWFNDVKINVRLNLQRASTTTHRTATTTTRRTTTTSPTTTRQMTTTPAALPTTVVTTPDLTTGTPLQMTTIAVFTTANTCLSLTPSTLPEEATGLLTPEPSKEGPILTAESETVLPSDSWSSVESTSADTVLLTSKESKVWDLPSTSHVSMWKTSDSVSSPQPGASDTAVPEQNKTTKTGQMDGIPMSMKNEMPISQLLMIIAPSLGFVLFALFVAFLLRGKLMETYCSQKHTRLDYIGDSKNVLNDVQHGREDEDGLFTL
In the case of B3, the “binding at Low PtdSer” value [1] is given as “Minimal” and the “binding at Low PtdSer” value ([1]; listed as Tim4 binding domain) is given as “binds minimally”.
